Experimental data taken from article PMC5216073, “Architecture and mechanism of the late endosomal Rab7-like Ypt7 guanine nucleotide exchange factor complex Mon1–Ccz1” (Nature Communications, 2017).

T1: CtMon1, full length (Chaetomium thermophilum Mon1) (Chaetomium thermophilum, UniProt G0SGS3 1-665)
T1 construct: Mon1 of Chaetomium thermophilum, NCBI XP_006697030; C-terminal domain printed as aa 486-665; GST cleaved with PreScission protease; source: E. coli Rosetta (DE3), co-expressed with CtCcz1, purified (glutathione column, size exclusion chromatography); not shown: GST, N-terminal, cleaved
T1 sequence (looked up): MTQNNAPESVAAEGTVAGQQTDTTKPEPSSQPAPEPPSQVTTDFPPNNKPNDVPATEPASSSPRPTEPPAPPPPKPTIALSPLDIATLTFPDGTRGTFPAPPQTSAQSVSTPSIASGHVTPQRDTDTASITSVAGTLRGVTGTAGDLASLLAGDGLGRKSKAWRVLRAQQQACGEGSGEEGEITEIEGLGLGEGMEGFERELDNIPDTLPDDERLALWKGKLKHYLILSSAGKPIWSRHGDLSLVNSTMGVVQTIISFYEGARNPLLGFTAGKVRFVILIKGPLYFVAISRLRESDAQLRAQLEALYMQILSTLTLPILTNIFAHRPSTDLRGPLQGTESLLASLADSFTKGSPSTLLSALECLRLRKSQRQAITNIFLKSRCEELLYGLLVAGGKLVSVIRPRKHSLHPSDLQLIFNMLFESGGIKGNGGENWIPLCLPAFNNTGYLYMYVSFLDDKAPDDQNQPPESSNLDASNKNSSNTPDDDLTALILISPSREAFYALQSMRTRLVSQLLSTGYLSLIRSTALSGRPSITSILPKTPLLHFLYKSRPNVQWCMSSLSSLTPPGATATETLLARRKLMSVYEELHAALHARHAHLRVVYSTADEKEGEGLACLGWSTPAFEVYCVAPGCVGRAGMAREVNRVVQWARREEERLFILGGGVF

B1: full-length CtMC1 complex (CtMon1-CtCcz1) (complex, Chaetomium thermophilum)
chain 1: T1 sequence (looked up)
chain 2: MTTPVSPSPSGIIPAQLGFLAIYNPALGTTDETLEDQIVYYATASTLSQARRRHRRPRRRDRQRAQSVVKDSRPNAAGATGDSEAVAEDKDPVSKEERHERLRQIGLAQGMVEFAKSFSDGEPVDTIDTEKARVILVEVEEGWWILASIDLTRLPLPQIKTPTSSSAPPPAPNLNPLPPEPAYEYSSREVKPPSLLRADLLRAYDLFLLHHGSSLSSLLASQGRAQLVASLTRFWDHFLATWNVLLHGNPACDVFGGIKLAASGELGIGVGEEERGSGEREVLEGLVERVEGLVDVVVGRYGGPPSEKGPEEEQWLGLGGEVGEEDGAVFLGVGALDRKSLRGVVQWMEEVYVWGENAFGVGGSRAARRRRKRGAKESRVLKTGAGKKIPIGTGTGTEGKRGEAATPDMAGTPGSMDKLFSYLTLGYGTSWSLGLSGTSTPSDSDPGSVSKGMVESSESGKPRRDLSTGHFLLGLSECSEEELTSSQANPKAIFVELKPSYQHPSRKIPPEDPQPLGKVGPELPRDHTARLRPVIYVSQPFIYILLFSEITPSPSTWPTLAESLHAQLSPLQKPLLHSTSYRPERPVVETTSSSGTTTQHQIFDLVYDTETLTLQSTIPNIPDPFPYSATTPTGHSTGQQHHQQSIWTRVEALQTHAQILAILSSGRAIPTDPSSFTHLPWEEGERTCKTARGWWIVWTRVVEHSPPDAVSLHHARDDDDNDDDASCSVLGHLRSVSSSHAAGSTSSSSGSGFGLGAIPGLGGLGGWAADGATRLAQGIGIDTRRYVEGLLTSLGR
notes: Mon1 of Chaetomium thermophilum, NCBI XP_006697030; codon-optimized synthetic gene; Ccz1 of Chaetomium thermophilum, NCBI XP_006695440; The Mon1-Ccz1 heterodimer forms a dimer of heterodimers (two copies of each protein); the rows of m3 with itself mean the association of two heterodimers; also called CtMC1full; Mon1-Ccz1 complex; source: E. coli Rosetta (DE3), co-expressed, purified (glutathione …)
B2: CtCcz1, full length (Chaetomium thermophilum Ccz1) (natural protein, UniProt G0SD94 1-796, looked up)
chain: B1 chain 2
notes: Ccz1 of Chaetomium thermophilum, NCBI XP_006695440; C-terminus printed as residues 250-796; His6-SUMO cleaved with SUMO protease; source: E. coli Rosetta (DE3), co-expressed with CtMon1, purified (glutathione column, size exclusion chromatography); not shown: His6, N-terminal, cleaved; SUMO, N-terminal, cleaved

Assays:
[1] = molecular target: CtYpt7 wild type (Chaetomium thermophilum Ypt7) (Chaetomium thermophilum); test: cell-based or functional assay
[2] = molecular target: the molecule itself; test: SEC; gel filtration of the full-length CtMC1 complex, co-expressed in E. coli and purified on a glutathione column by GST-CtMon1, tags cleaved
[3] = molecular target: T1, CtMon1, full length (Chaetomium …); test: as above; conditions: both partners purified

| Binder | kcat/KM of MC1-stimulated exchange of MANT-GDP for GTP on Ypt7 (fluorescence GEF assay, 0-2.0 μM CtMC1, 25 °C) [1] [M⁻¹ s⁻¹] | stoichiometry N [2] | stoichiometry N [3] |
| --- | --- | --- | --- |
| B1 | 21000 | 2 |  |
| B2 |  |  | 1 |
